Results reported in patent US20240270793A1, “COMPOSITIONS” (UNIVERSITY OF SOUTHAMPTON, priority 2020, published 2024).
“Also recorded” adds a separate entry of the source. Numbered stars: 1 amine (or outer) side, 2 acyl side, 3 side chain; on linkers, the order of the positions; unused ones are H or OH. Square brackets hold non-standard residues; d marks the D form. Peptide text beside a SMILES is read from it. Cys(Me) = S-methylcysteine, cys(Me), CSC[C@H](N[*:1])C(=O)[*:2]; Pen = CC(C)(S)[C@H](N)C(=O)O; hLeu = CC(C)CC[C@H](N)C(=O)O; hCys = N[C@@H](CCS)C(=O)O; Nle = CCCC[C@H](N)C(=O)O; Nva = CCC[C@H](N)C(=O)O; Aib = CC(C)(N)C(=O)O

Legend:
[1] = target: HIF-2α PAS-B; assay: 2α (μM)
Source text: Table printed on a drawing sheet, Figure 3 (part 1 of 3) A
Head of the field: 2α (μM)
The patent's description of the figure: FIG. 3

[2] = target: T1, HIF-1α PAS-B (238-349) (Homo sapiens, UniProt Q16665); assay: MST binding to recombinantly expressed HIF-1α PAS-B domain; details: for affinity for the PAS-B domain of HIF-1α compared with cyclo-CLLFVY: compared with previously reported HIF-1 dimerization inhibitor
T1 construct: human HIF-1α PAS-B (238-349); His tag; made in house; host or cells: E. coli BL21(DE3)-Rosetta, pET28a
Procedure: (§1) Genes encoding for human HIF-1α PAS-B (238-349) and HIF-2α PAS-B (240-350) were each cloned into pET28a vectors at the BamHI and SacI restriction sites. The recombinant plasmids were next transformed into BL21(DE3)-Rosetta chemically competent cells. Cells were grown in LB media at 37° C. to an OD600 of 0.7, after which expression was induced by addition of 0.5 mM IPTG. Following overnight expression at 16° C., cells were pelleted and resuspended in buffer containing 50 mM Tris, 150 mM NaCl, 5% glycerol, 1 mM TCEP, protease inhibitors (Roche) and 20 mM imidazole, pH 8.0. Cells were lysed by sonication, and the supernatant applied to a 1 mL Histrap FF affinity column. The His-tagged protein of interest was eluted with buffer containing 50 mM Tris, 150 mM NaCl, 5% glycerol, 1 mM TCEP and 250 mM imidazole. The protein was then loaded onto a HiLoad 16/600 superdex 75 pg size exclusion column (GE healthcare) equilibrated with assay buffer containing 50 mM Tris, 150 mM NaCl, 5% glycerol and 1 mM TCEP, pH 8.0. Fractions containing the desired protein were flash-frozen and stored at −80° C. prior to use.
(§2) HIF-α proteins were labelled with Monolith NT-647 labelling dye (Nanotemper Technologies GmbH) according to the manufacturer's instructions. MST experiments were performed on a Monolith NT.115 system (Nanotemper Technologies GmbH), in assay buffer containing 50 nM labelled protein, 10% DMSO and 0.05% TWEEN-20. MST measurements were performed using 50% LED and 50% MST power.

[3] = target: T2, HIF-2α PAS-B (240-350) (Homo sapiens, UniProt Q99814); assay: MST binding to recombinantly expressed HIF-2α PAS-B domain; details: MST, recombinant HIF-2α PAS-B domain; read-out: Kd / binding affinity for 2α PAS-B
T2 construct: HIF-2α PAS-B (240-350); His tag; made in house; host or cells: E. coli BL21(DE3)-Rosetta, pET28a
Procedure: The three lead peptides were next chemically synthesised, using Fmoc-solid phase peptide synthesis methodology, followed by in-solution cyclisation under high dilution conditions.
as §1, with “use. […]” for “use.”

[4] = target: T3, human HIF-1α PAS-B (238-349), recombinant, His-tagged (human, UniProt Q16665 238-349, labelled with Monolith NT-647 dye for MST); assay: MST, HIF-1α PAS-B; bar chart of Kd (µM) for residues at position 1 of CRLIIF
T3 construct: range 238-349; Expressed in E. coli BL21(DE3)-Rosetta from pET28a; also called HIF-1α PAS-B domain; PAS-B domain of HIF-1α; not shown: His tag from pET28a vector (BamHI/SacI cloning)

[5] = target: T3, human HIF-1α PAS-B (238-349), …; assay: MST, NT-647-labelled recombinant 1α PAS-B
Procedure: as §2

[6] = target: T4, human HIF-2α PAS-B (240-350), recombinant, His-tagged (human, UniProt Q99814 240-350, labelled with Monolith NT-647 dye for MST); assay: MST, HIF-2α PAS-B (column 2α (µM))
T4 construct: range 240-350; Expressed in E. coli BL21(DE3)-Rosetta from pET28a; also called PAS-B domain of HIF-2α; not shown: His tag from pET28a vector (BamHI/SacI cloning)

[7] = target: T3, human HIF-1α PAS-B (238-349), …; assay: MST, HIF-1α PAS-B (column 1α (µM))
[8] = target: T3, human HIF-1α PAS-B (238-349), …; assay: MST, HIF-1α PAS-B; bar chart of Kd (µM) for residues at position 5 of CRLIIF

T4 sequence (Q99814 240-350): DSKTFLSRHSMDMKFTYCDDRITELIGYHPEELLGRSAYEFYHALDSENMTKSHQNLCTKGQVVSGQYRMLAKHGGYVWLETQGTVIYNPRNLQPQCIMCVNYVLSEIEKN
T3 sequence (Q16665 238-349): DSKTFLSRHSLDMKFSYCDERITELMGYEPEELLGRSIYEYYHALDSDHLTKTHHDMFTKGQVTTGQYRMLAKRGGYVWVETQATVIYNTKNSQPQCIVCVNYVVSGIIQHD
T1 sequence (Q16665 238-349): as above
T2 sequence (Q99814 240-350): as the sequence (Q99814 240-350) above

`CC[C@H](C)[C@@H]1NC(=O)[C@H](CC(C)C)NC(=O)[C@H](CCCNC(=N)N)NC(=O)[C@H](CS)NC(=O)[C@H](Cc2ccccc2)NC(=O)[C@H](C)NC1=O` [compound 10, CRLIAF] showed a Kd [1] of 269 ± 7 µM.

`CC[C@H](C)[C@@H]1NC(=O)[C@H](C)NC(=O)[C@H](CCCNC(=N)N)NC(=O)[C@H](CS)NC(=O)[C@H](Cc2ccccc2)NC(=O)[C@H]([C@@H](C)CC)NC1=O` [compound 8, CRAIIF] (cyclo(CRAIIF)) was tested, and the Kd [1] was 52 ± 7 µM.

For `CC[C@H](C)[C@@H]1NC(=O)[C@H](CC(C)C)NC(=O)[C@H](CCCNC(=N)N)NC(=O)[C@H](C)NC(=O)[C@H](Cc2ccccc2)NC(=O)[C@H]([C@@H](C)CC)NC1=O` [Cyclic peptide #9, cyclo-ala agr leu ile ile phe] (cyclo(ARLIIF)), the “Kd / binding affinity for 1α PAS-B” value ([2]; MST, recombinant HIF-1α PAS-B domain) was “could not be determined”.

In the case of `CC[C@H](C)[C@@H]1NC(=O)[C@H](CC(C)C)NC(=O)[C@H](CC(C)C)NC(=O)[C@H](CCCNC(=N)N)NC(=O)[C@H](CS)NC(=O)[C@H](Cc2ccccc2)NC1=O` [Cyclic peptide #2, cyclo-cys arg leu leu ile phe] (cyclo(CRLLIF)), the Kd ([2]; MST, recombinant HIF-1α PAS-B domain, read-out: Kd / binding affinity for 1α PAS-B) is reported as 10 to 14 µM, the “affinity for the PAS-B domain of HIF-1α compared with cyclo-CLLFVY” value [2] is reported as “improved affinities” and the Kd [3] is reported as 10 to 14 µM.

For `CC[C@H](C)[C@@H]1NC(=O)[C@H](CC(C)C)NC(=O)[C@H](CCCNC(=N)N)NC(=O)[C@H](CS)NC(=O)[C@H](Cc2ccccc2)NC(=O)C(C)(C)NC1=O` [Cyclic peptide #38, cyclo-cys agr leu ile (Aib) phe (Aib)F] (cyclo([Aib]FCRLI)), the “affinity relative to parent peptide CRLIIF (in words)” value ([2]; MST, SAR substitutions, listed as Aib derivative) was “weaker Kd than the parent compound; also recorded: markedly improved affinity over both the alanine and aminobutyric acid”.

For `CC[C@H](C)[C@@H]1NC(=O)[C@H](CC(C)C)NC(=O)[C@H](CCCCN)NC(=O)[C@H](CS)NC(=O)[C@H](Cc2ccccc2)NC(=O)[C@H]([C@@H](C)CC)NC1=O` [Cyclic peptide #1, cyclo-cys lys leu ile ile phe] (cyclo(CKLIIF)), the “selectivity between 1α and 2α PAS-B domains (in words)” value ([2]; MST, 1α vs 2α PAS-B) was “little difference in selectivity” and the “affinity for the PAS-B domain of HIF-1α compared with cyclo-CLLFVY” value [2] was “improved affinities”.

B1: cyclo-cys arg leu ile ile phe (peptide)
peptide: CRLIIF
modifications: head-to-tail cyclic (cyclo-)
notes: also called CRLIIF; cyclic peptide #4
For B1, the Kd [4] was 3.9 µM, the Kd [5] was 3.8 µM and the “fold greater affinity than CKLLIF” value [5] was roughly 3 fold. The Kd [6] was 11 µM.

B2: M (peptide)
cyclic peptide: MRLIIF
modifications: head-to-tail cyclised
notes: Bar 'M' in the chart of C1 substitutions of CRLIIF; Comparative peptide; also called Cyclo-MRLIIF; cyclo-met arg leu ile ile phe
Work on B2 yielded a Kd [4] of 108 µM.

B3: S (peptide)
cyclic peptide: SRLIIF
modifications: head-to-tail cyclised
notes: Bar 'S' in the chart of C1 substitutions of CRLIIF; Comparative peptide; also called Cyclo-SRLIIF; cyclo-ser arg leu ile ile phe
B3 gave a Kd [4] of 169 µM.

B4: T (peptide)
cyclic peptide: TRLIIF
modifications: head-to-tail cyclised
notes: Bar 'T' in the chart of C1 substitutions of CRLIIF; Comparative peptide; also called Cyclo-TRLIIF; cyclo-thr arg leu ile ile phe
For B4, the Kd [4] was greater than 200 µM.

B5: cyclo-ala arg leu ile ile phe (peptide)
peptide: ARLIIF
modifications: head-to-tail cyclic (cyclo-)
notes: also called ARLIIF; cyclic peptide #9
B5 was tested, and the Kd [4] was greater than 200 µM.

B6: cyclo-cys ala leu ile ile phe (peptide)
peptide: CALIIF
modifications: head-to-tail cyclic (cyclo-)
notes: also called CALIIF; cyclic peptide #10
Work on B6 yielded a Kd [6] of 12 µM and a Kd [7] of 30 µM.

B7: cyclo-cys arg ala ile ile phe (peptide)
peptide: CRAIIF
modifications: head-to-tail cyclic (cyclo-)
notes: also called CRAIIF; cyclic peptide #11
B7 gave a Kd [6] of 52 µM and a Kd [7] of 53 µM.

B8: cyclo-cys arg leu ala ile phe (peptide)
peptide: CRLAIF
modifications: head-to-tail cyclic (cyclo-)
notes: also called CRLAIF; cyclic peptide #6
With B8 the Kd [6] was 61 µM and the Kd [7] was 13 µM.

B9: cyclo-cys arg leu ile ala phe (peptide)
peptide: CRLIAF
modifications: head-to-tail cyclic (cyclo-)
notes: also called CRLIAF; cyclic peptide #7
B9 showed a Kd [6] of 269 µM and a Kd [7] of 111 µM.

B10: cyclo-cys arg leu ile ile ala (peptide)
peptide: CRLIIA
modifications: head-to-tail cyclic (cyclo-)
notes: also called CRLIIA; cyclic peptide #8
B10 showed a Kd [6] of 373 µM and a Kd [7] of 91 µM.

B11: cyclo-cys arg leu ile leu phe (peptide)
peptide: CRLILF
modifications: head-to-tail cyclic (cyclo-)
notes: also called Cyclo-CRLILF; cyclic peptide #36
B11: binds [8].

B12: cyclo-cys arg leu ile val phe (peptide)
peptide: CRLIVF
modifications: head-to-tail cyclic (cyclo-)
notes: also called Cyclo-CRLIVF; cyclic peptide #37
B12: binds [8].

B13: cyclo-cys lys leu leu ile phe (peptide)
peptide: cyclo(CKLLIF)
modifications: not fully specified
notes: also called CKLLIF; cyclic peptide #5
For B13, the Kd [5] was 12 µM.

B14: C(Me) (peptide)
cyclic peptide: cyclo([Cys(Me)]RLIIF)
SMILES: CC[C@H](C)[C@@H]1NC(=O)[C@H](CC(C)C)NC(=O)[C@H](CCCNC(=N)N)NC(=O)[C@H](CSC)NC(=O)[C@H](Cc2ccccc2)NC(=O)[C@H]([C@@H](C)CC)NC1=O
notes: Bar 'C(Me)' in the chart of C1 substitutions of CRLIIF; Comparative peptide; also called Cyclo-C(Me)RLIIF; cyclo-(methyl)cys arg leu ile ile phe
In the case of B14, the Kd [4] is reported as 62 µM.

B15: cyclo-hcys arg leu ile ile phe (peptide)
peptide: cyclo([hCys]RLIIF)
SMILES: CC[C@H](C)[C@@H]1NC(=O)[C@H](CC(C)C)NC(=O)[C@H](CCCNC(=N)N)NC(=O)[C@H](CCS)NC(=O)[C@H](Cc2ccccc2)NC(=O)[C@H]([C@@H](C)CC)NC1=O
notes: also called Cyclo-hCRLIIF; cyclic peptide #13d
Molecule B15 has a Kd [4] of 44 µM.

B16: cyclo-Pen arg leu ile ile phe (peptide)
peptide: cyclo([Pen]RLIIF)
SMILES: CC[C@H](C)[C@@H]1NC(=O)[C@H](CC(C)C)NC(=O)[C@H](CCCNC(=N)N)NC(=O)[C@H](C(C)(C)S)NC(=O)[C@H](Cc2ccccc2)NC(=O)[C@H]([C@@H](C)CC)NC1=O
notes: also called Cyclo-PenRLIIF; cyclic peptide #12d
Work on B16 yielded a Kd [4] of 9 µM.

B17: cyclo-cys arg leu ile h-leu phe (peptide)
peptide: cyclo(CRLI[hLeu]F)
SMILES: CC[C@H](C)[C@@H]1NC(=O)[C@H](CC(C)C)NC(=O)[C@H](CCCNC(=N)N)NC(=O)[C@H](CS)NC(=O)[C@H](Cc2ccccc2)NC(=O)[C@H](CCC(C)C)NC1=O
notes: also called Cyclo-CRLI(hL)F; cyclic peptide #33
B17: binds [8].

B18: cyclo-cys arg leu ile (n-leu) phe (peptide)
peptide: cyclo(CRLI[Nle]F)
SMILES: CCCC[C@@H]1NC(=O)[C@H]([C@@H](C)CC)NC(=O)[C@H](CC(C)C)NC(=O)[C@H](CCCNC(=N)N)NC(=O)[C@H](CS)NC(=O)[C@H](Cc2ccccc2)NC1=O
notes: also called Cyclo-CRLI(Nle)F; cyclic peptide #34
B18: binds [8].

B19: cyclo-cys arg leu ile (Nva) phe (peptide)
peptide: cyclo(CRLI[Nva]F)
SMILES: CCC[C@@H]1NC(=O)[C@H]([C@@H](C)CC)NC(=O)[C@H](CC(C)C)NC(=O)[C@H](CCCNC(=N)N)NC(=O)[C@H](CS)NC(=O)[C@H](Cc2ccccc2)NC1=O
notes: also called Cyclo-CRLI(Nva)F; cyclic peptide #35
B19: binds [8].
